Test system: MS2 coat protein
Assay: apparent KD of MS2 coat protein; designed switch direction (-1 OFF switch, 1 ON switch): -1; higher = weaker reporter binding
How it was run: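 RNA switches sharing common flanks were transcribed by stalled E. coli RNA polymerase on Illumina chips. A doubling series of SNAP-549-labelled MS2 coat protein, from 0.7 or 1.5 nM to 3 µM, was applied in Tris-HCl pH 7.5 buffer with KCl, MgCl2, BSA, DTT, tRNA and Tween-20. Each step lasted 0.8–1.5 h at the bottom of the series and 10–20 min at the top. Normalised cluster fluorescence was curve-fitted, giving apparent KD as the per-design median over clusters.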

[1] = Eterna round: R95, input ligand: microRNA oligo, concentration not stated
[2] = input ligand: microRNA oligo, concentration not stated
[3] = Eterna round: R95, input ligand: FMN 200 uM
[4] = Eterna round: R95, input ligand: none

| Sequence | apparent KD of MS2 coat protein (input ligand: FMN 200 uM) [nM] | apparent KD of MS2 coat protein (input ligand: none) [nM] | apparent KD of MS2 coat protein [1] [nM] | apparent KD of MS2 coat protein [2] [nM] | apparent KD of MS2 coat protein [3] [nM] | apparent KD of MS2 coat protein [4] [nM] |
| --- | --- | --- | --- | --- | --- | --- |
| ACAAGCUUUACGAUCCUCAACAUGAGGAUCACCCAUGUGCUCGUAUUGUUUAGUACUAUCACGAAAGUGAUAGUACA [Sensor, turn off variant 1 v.6] (Eterna round: R97, puzzle: Sensor, turn-off variant 1) | 1430 | 943 |  |  |  |  |
| GGAUCGAGUGUGAGGAUAUACCACUGGAUACAGUGGUAGAAGGCACAUGAGGAUCACCCAUGUCCCUACGAUCC [Fiskers BMX 4 - 45] (puzzle: Brourd's mod of Exclusion 4) |  |  | 28.2 |  |  |  |
| ACAUGUGUUGUAGGAUAUAGGAUACAUGAGGAUCACCCAUGUGGAUUCAUGUCUAAGGAAGCGUCCUAGAAGGACGACAACAUG [Ex NG2 #25] (Eterna round: R96, puzzle: Exclusion NG 2) | 83 | 27.6 |  | 21.6 |  |  |
| CAUACAGUAGUUAGGAUAUUGCAACGUAUACGGAUCGAGAAGGGACAUGAGGAUCACCCAUGUAGAUUGUAAAG [EX-4 Malc #9] (puzzle: Brourd's mod of Exclusion 4) |  |  | 34 |  |  |  |
| UUUUUCGAACAAGCAUCGAACAUGAGGAUCACCCAUGUAGGUAGAUUUGAGUAGGUAUGGAAGUAAGCUCGUCUUAU [JR_SV3TOV1_Sub080] (puzzle: Sensor v3, turn-off variant 1) |  |  | 107 |  | 39.4 | 53.9 |
| GUCAGCUCGUCAGGAUAUACAUCACUGCUUCGGCAGUGUAUUAAGAUCACAUGAGGAUCACCCAUGUAGAAGGGACGAGCUGAC [ENG2/2-B1] (Eterna round: R96, puzzle: Exclusion NG 2) | 269 | 21.9 |  | 21.2 |  |  |
| GAAAAGUGAGGAUAUGGUAAAAGAAAAAGAAAAAGAAAACUCCAGAAGGCACAUGAGGAUCACCCAUGUAAAAG [salish99_ex4_r3_005] (puzzle: Exclusion 4) |  |  | 19.4 |  | 26.9 | 23.6 |
| AGCAAGUUAGGAUAUCUUAAAGUUAGGUGAUGUCCUGUUUGAGAGAAGGAACAUGAGGAUCACCCAUGUGGUCA [Eternabot (L2) Solution 56] (Eterna round: R97, puzzle: Exclusion 4) | 58.3 | 62.6 |  |  |  |  |
| CCGCAUAAGCAGGAUAUCGUAUCGGAGACGAUACGAGAAGGGUUAACAUGAGGAUCACCCAUGUUCCUUAACGG [Mat - Exclusion 6 - Eli Mod - D99] (puzzle: Exclusion 6) |  |  | 14.1 |  | 19.7 | 18.1 |
| CUGCUCCGUGUAGGAUAUCCCGGCAACCAACCGGGAGAAGGACAUGAGGAUCACCCAUGUAUGUUAUUAUCACGUGAAGCGUCC [Design 28] (Eterna round: R96, puzzle: Exclusion NG 1) | 29 | 19.9 |  | 12.5 |  |  |
| ACAUGAGGAUCACCCAUGUGAAAACAAUGGCUGACUUUGAGAUAGGAUAUAUGUGCAUAUCAAACAUAGAAGGGUCAUUACUGG [Deportation 90 - Jieux - Exclusion NG 3] (Eterna round: R96, puzzle: Exclusion NG 3) | 41.4 | 47.2 |  | 25.9 |  |  |
| CAUGAUCUUCGGAUCAUGGACAUGAGGAUCACCCAUGUCACGAGCAGAUCUUCAUGCAAGCUUUUUGCUCGUCUUAU [Sensor v3 - Turn-off variant 1 - 38] (puzzle: Sensor v3, turn-off variant 1) |  |  | 405 |  | 28 | 29.8 |
| UUUUUUGGGCAAGGAUAUCCUGUGCGGUUCCGGCUCGUGUCUGUUACAUGAGGAUCACCCAUGUGGGAGAAGGUGCCUGCGGUU [Design 85] (Eterna round: R96, puzzle: Exclusion NG 2) | 172 | 34.9 |  | 31.1 |  |  |
| AGACCGAUAGCAGGAUAUAGGACGACGAGAGCGCUAGAAGGGCUGACGACAUGAGGAUCACCCAUGUUUUCGUCUCAACAGGCA [Eternabot solution 22] (Eterna round: R96, puzzle: Exclusion NG 1) | 31 | 29.2 |  | 23.1 |  |  |
| GGUCCUCCGGAGGAUAUGGAACUGGAGGUAGUACCAGAAGGCCGAACAUGAGGAUCACCCAUGUGCCCGUAAAA [Aarlean] (puzzle: Exclusion 6) |  |  | 17 |  | 76.8 | 18.5 |
| AGUACUCUCACGAAAGUGAGAGUACAAAAAGCAAGUGAAACAUGAGGAUCACCCAUGUCCUCAUUUGCUCGUCUUAU [Mat - Sensor v2 -ver2- JL mod - D88] (Eterna round: R96, puzzle: Sensor v2, turn-off variant 2) | 11.8 | 14.4 |  | 413 |  |  |
| AGUGUGUGGCAGGAUAUGCAAUUAAUAGGUGAAGCAGAAGGGUCUACAUGAGGAUCACCCAUGUAUGCGGUUGA [Ex6 #23] (Eterna round: R97, puzzle: Exclusion 6) | 297 | 68.5 |  |  |  |  |
| UGGUAACAUGAGGAUCACCCAUGUCAGGAUAUCAGUAAGAAUAGAUUAGAUUAGAAUAUGAGAAGGGACUAUAU [Excluse me! 4 - Jieux - Exclusion 1] (puzzle: Exclusion 1) |  |  | 30.9 |  |  |  |
| ACAUGAGGAUCACCCAUGUUUUUCGGGUACUCUUUUUACAGCAAGGAUAUGCAUUAUUUAUGUACGCAGAAGGUGCUUUACGUC [JR_ExcNG3_Sub065] (Eterna round: R96, puzzle: Exclusion NG 3) |  |  |  | 82.9 |  |  |
| CUUGUUUAUGUAGGAUAUGCCUGGCGUGCCUUUGCAGAAGGACAUGAGGAUCACCCAUGUAACAUGAGGAUCACCCAUGUCGCA [salish99_ExNG1_r04_103] (Eterna round: R96, puzzle: Exclusion NG 1) | 1190 | 854 |  | 555 |  |  |
| AUCGUGCAGCAAAGCUGUACGAGUACAUGAGGAUCACCCAUGUAGGAUAUGGUACGCUUUGCGUGCUAGAAGGAUAUGUGUAGG [Mat - Exclusion NG 3 - Mod of JL - D83] (Eterna round: R96, puzzle: Exclusion NG 3) | 35.7 | 35.7 |  | 31 |  |  |
| GGAAGGCGAGGAUAUGCAAUAAUACACUCGAAGGAGUGAUAACAUGAGGAUCACCCAUGUAGAAGGCGCGAGAA [AK-MS2ROC-r4-exclusion2-6] (Eterna round: R97, puzzle: Exclusion 2) | 36.1 | 36.1 |  |  |  |  |
| GGUCGGGCAAAGGAUGCCCACAUGAGGAUCACCCAUGUACAAGACUUUAAGGUGCGUAAGCGCAUACGGCUCGUUAA [Eternabot (L1) Solution 26] (Eterna round: R97, puzzle: Sensor, turn-off variant 1) | 15.9 | 16.5 |  |  |  |  |
| AUACCAUGCCGCCUAAUAGCUUUUUGCUCGUCUUAUAAAACAUGAGGAUCACCCAUGUAAAACUCGUGGCGUGACCC [Leorbixe] (puzzle: Sensor v3, turn-off variant 2) |  |  | 19.9 |  | 77 | 60.8 |
